# In patent US9493781B2, “Synthetic brassica-derived chloroplast transit peptides” (DOW AGROSCIENCES LLC, priority 2012, dated 2016):
# Tests used:
# [1] = test system: YFP protein; test: Western blot of infiltrated tobacco leaves (YFP expression, transit peptide processing); set-up: species or system Nicotiana benthamiana; conditions: infiltrated tobacco leaf tissue
# Description: Samples of the infiltrated tobacco plants were assayed via Western blotting. Leaf punches were collected and subjected to bead-milling. About 100-200 mg of leaf material was mixed with 2 BBs (steel balls) (Daisy; Rogers, Ark.) and […] of PBST for 3 minutes in a Kleco™ bead mill. The samples were then spun down in a centrifuge at 14,000×g at 4° C. The supernatant was removed and either analyzed directly via Western blot or immunoprecipitated. The immunoprecipitations were performed using the Pierce Direct IP Kit™ (Thermo Scientific; Rockford, Ill.) following the manufacturer's protocol. Approximately, 50 μg of anti-YFP was bound to the resin. The samples were incubated with the resin overnight at 4° C. Next, the samples were washed and eluted the following morning and prepped for analysis by combining equal volumes of 2×8M Urea sample buffer and then boiling the samples for 5 minutes. The boiled samples were run on a 4-12% SDS-Bis Tris gel in MOPS buffer for 40 minutes. The gel was then blotted using the Invitrogen iBlot™ (Life Technologies; Carlsbad, Calif.) following the manufacturer's protocol. The blotted membrane was blocked for 10 minutes using 5% non-fat dry milk in PBS-Tween solution. The membrane was probed with the primary antibody (monoclonal anti-GFP in rabbit) used at a 1:1000 dilution in the 5% non-fat dry milk in PBS-Tween solution for 1 hour. […]
# [2] = test system: chloroplasts of maize protoplasts; test: Maize protoplast transient assay: microscopy of TraP8-YFP; type: cell-based, Zea mays; conditions: B104 maize protoplasts, 12 hours after transfection
# Text: The Trap8 chimeric chloroplast transit peptide-encoding polynucleotide sequence (SEQ ID NO:5) and the linker-encoding polynucleotide sequence (SEQ ID NO:7) were cloned upstream of the yellow fluorescent protein gene and incorporated into construct pDAB106597 (FIG. 8) for testing via the maize protoplast transient in planta assay. The resulting constructs contained a single plant transcription unit (PTU). The PTU was comprised of the Zea mays Ubiquitin 1 promoter (ZmUbi1 promoter; Christensen, A., Sharrock R., and Quail P., (1992) Maize polyubiquitin genes: structure, thermal perturbation of expression and transcript splicing, and promoter activity following transfer to protoplasts by electroporation, Plant Molecular Biology, 18:675-689), TraP-yellow fluorescent protein fusion gene (TraP8-YFP; US Patent App. 2007/0298412), and Zea mays Peroxidase 5 3′ untranslated region (ZmPer5 3′UTR; U.S. Pat. No. 6,384,207). The constructs were confirmed via restriction enzyme digestion and sequencing.
# Seed of Zea mays var. […]
# Transfection of 100 to 500 μl of protoplasts (1−5×10^5) was completed by adding the protoplasts to a 2 ml microfuge tube containing about 40 μg of plasmid DNA (pDAB106597), at room temperature. […] Fluorescence of YFP was viewed by microscopy after 12 hours of incubation. […]
molecule,measurement,setting,value
"TraP8: chimeric chloroplast transit peptide SEQ ID NO:3; N-terminus from Brassica napus EPSPS CTP, C-terminus from Brassica rapa (protein, TraP8 chimeric chloroplast transit peptide, N-terminus from Brassica napus EPSPS CTP, C-terminus from Brassica rapa) MAQSSRICHGVQNPCVIISNLSKSNQNKSPFSVSLKTHQQQRRAYQISSWGLKKSNNGSVIRPVK",Processing (cleavage) of transit peptide from YFP by Western blot,[1],processed
same,Localization of YFP fluorescence in maize protoplasts,[2],accumulated within the chloroplasts
